Assay results reported in FireProtDB (doi:10.1021/bi00416a052).

Details: Escherichia coli (strain K12), Thermal, CD, NaCl 0.1 M, reversible: yes, whole UniProt chain shown

B1: Ribonuclease HI wild type, P0A7Y4 (protein)
chain: MLKQVEIFTDGSCLGNPGPGGYGAILRYRGREKTFSAGYTRTTNNRMELMAAIVALEALKEHCEVILSTDSQYVRQGITQWIHNWKKRGWKTADKKPVKNVDLWQRLDAALGQHQIKWEWVKGHAGHPENERCDELARAAAMNPTLEDTGYQVEV
Which results are given for B1?
Tm (pH 3, glycine-HCl 10 mM): 49.8 °C; Tm (pH 5.5, Sodium acetate 20 mM): 52 °C
